{"source": "patent US6288042", "biological_target": "HIV-1 integrase wild-type (IN1-288) (Human immunodeficiency virus 1) (UniProt P04585)", "assay": "inhibition", "conditions": "I = deoxyinosine; PS at first and last linkage; 3'-processing column as printed; strand transfer column 0.070", "note": "pIC50: −log10 of the molar value."}
{"sequence": "IGGIIGGIIGGIIGGI [T30721]", "values": [{"measurement": "pIC50", "result": 7.06}]}
